B1: Proton-coupled zinc antiporter SLC30A2 (Homo sapiens), Q9BRI3 (parent)
chain: MEAKEKQHLLDARPAIRSYTGSLWQEGAGWIPLPRPGLDLQAIELAAQSNHHCHAQKGPDSHCDPKKGKAQRQLYVASAICLLFMIGEVVGGYLAHSLAVMTDAAHLLTDFASMLISLFSLWMSSRPATKTMNFGWQRAEILGALVSVLSIWVVTGVLVYLAVERLISGDYEIDGGTMLITSGCAVAVNIIMGLTLHQSGHGHSHGTTNQQEENPSVRAAFIHVIGDFMQSMGVLVAAYILYFKPEYKYVDPICTFVFSILVLGTTLTILRDVILVLMEGTPKGVDFTAVRDLLLSVEGVEALHSLHIWALTVAQPVLSVHIAIAQNTDAQAVLKTASSRLQGKFHFHTVTIQIEDYSEDMKDCQACQGPSD
B2: Casein kinase II subunit alpha' (Homo sapiens), P19784 (parent)
chain: MPGPAAGSRARVYAEVNSLRSREYWDYEAHVPSWGNQDDYQLVRKLGRGKYSEVFEAINITNNERVVVKILKPVKKKKIKREVKILENLRGGTNIIKLIDTVKDPVSKTPALVFEYINNTDFKQLYQILTDFDIRFYMYELLKALDYCHSKGIMHRDVKPHNVMIDHQQKKLRLIDWGLAEFYHPAQEYNVRVASRYFKGPELLVDYQMYDYSLDMWSLGCMLASMIFRREPFFHGQDNYDQLVRIAKVLGTEELYGYLKKYHIDLDPHFNDILGQHSRKRWENFIHSENRHLVSPEALDLLDKLLRYDHQQRLTAKEAMEHPYFYPVVKEQSQPCADNAVLSSGLTAAR
B3: Peroxisomal bifunctional enzyme (Homo sapiens), Q08426 (parent)
chain: MAEYTRLHNALALIRLRNPPVNAISTTLLRDIKEGLQKAVIDHTIKAIVICGAEGKFSAGADIRGFSAPRTFGLTLGHVVDEIQRNEKPVVAAIQGMAFGGGLELALGCHYRIAHAEAQVGLPEVTLGLLPGARGTQLLPRLTGVPAALDLITSGRRILADEALKLGILDKVVNSDPVEEAIRFAQRVSDQPLESRRLCNKPIQSLPNMDSIFSEALLKMRRQHPGCLAQEACVRAVQAAVQYPYEVGIKKEEELFLYLLQSGQARALQYAFFAERKANKWSTPSGASWKTASARPVSSVGVVGLGTMGRGIVISFARARIPVIAVDSDKNQLATANKMITSVLEKEASKMQQSGHPWSGPKPRLTSSVKELGGVDLVIEAVFEEMSLKKQVFAELSAVCKPEAFLCTNTSALDVDEIASSTDRPHLVIGTHFFSPAHVMKLLEVIPSQYSSPTTIATVMNLSKKIKKIGVVVGNCFGFVGNRMLNPYYNQAYFLLEEGSKPEEVDQVLEEFGFKMGPFRVSDLAGLDVGWKSRKGQGLTGPTLLPGTPARKRGNRRYCPIPDVLCELGRFGQKTGKGWYQYDKPLGRIHKPDPWLSKFLSRYRKTHHIEPRTISQDEILERCLYSLINEAFRILGEGIAASPEHIDVVYLHGYGWPRHKGGPMFYASTVGLPTVLEKLQKYYRQNPDIPQLEPSDYLKKLASQGNPPLKEWQSLAGSPSSKL
partner: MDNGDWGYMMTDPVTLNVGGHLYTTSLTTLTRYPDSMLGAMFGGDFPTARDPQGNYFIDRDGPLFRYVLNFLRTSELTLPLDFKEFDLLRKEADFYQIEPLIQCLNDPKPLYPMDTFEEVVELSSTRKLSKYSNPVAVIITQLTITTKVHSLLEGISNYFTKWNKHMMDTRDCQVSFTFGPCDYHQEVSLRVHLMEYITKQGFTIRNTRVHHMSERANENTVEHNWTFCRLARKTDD
B4: Mediator of RNA polymerase II transcription subunit 18 (Homo sapiens), Q9BUE0 (parent)
chain: MEAPPVTMMPVTGGTINMMEYLLQGSVLDHSLESLIHRLRGLCDNMEPETFLDHEMVFLLKGQQASPFVLRARRSMDRAGAPWHLRYLGQPEMGDKNRHALVRNCVDIATSENLTDFLMEMGFRMDHEFVAKGHLFRKGIMKIMVYKIFRILVPGNTDSTEALSLSYLVELSVVAPAGQDMVSDDMKNFAEQLKPLVHLEKIDPKRLM
partner: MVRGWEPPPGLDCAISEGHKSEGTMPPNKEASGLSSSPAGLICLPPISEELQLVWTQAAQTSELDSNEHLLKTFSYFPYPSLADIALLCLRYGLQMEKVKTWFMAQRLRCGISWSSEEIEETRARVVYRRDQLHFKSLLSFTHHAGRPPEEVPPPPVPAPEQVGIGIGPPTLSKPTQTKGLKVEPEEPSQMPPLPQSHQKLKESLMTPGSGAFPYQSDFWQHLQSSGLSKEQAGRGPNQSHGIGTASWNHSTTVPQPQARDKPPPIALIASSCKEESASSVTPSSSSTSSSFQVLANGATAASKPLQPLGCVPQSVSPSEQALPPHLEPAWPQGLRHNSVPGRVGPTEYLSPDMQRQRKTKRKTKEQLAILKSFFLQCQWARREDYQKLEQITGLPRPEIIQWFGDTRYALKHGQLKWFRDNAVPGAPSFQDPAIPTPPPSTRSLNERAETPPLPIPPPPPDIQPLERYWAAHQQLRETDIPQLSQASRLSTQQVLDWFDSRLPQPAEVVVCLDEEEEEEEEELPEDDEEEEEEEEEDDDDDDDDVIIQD
B5: Conserved oligomeric Golgi complex subunit 2 (Homo sapiens), Q14746 (parent)
chain: MEKSRMNLPKGPDTLCFDKDEFMKEDFDVDHFVSDCRKRVQLEELRDDLELYYKLLKTAMVELINKDYADFVNLSTNLVGMDKALNQLSVPLGQLREEVLSLRSSVSEGIRAVDERMSKQEDIRKKKMCVLRLIQVIRSVEKIEKILNSQSSKETSALEASSPLLTGQILERIATEFNQLQFHAVQSKGMPLLDKVRPRIAGITAMLQQSLEGLLLEGLQTSDVDIIRHCLRTYATIDKTRDAEALVGQVLVKPYIDEVIIEQFVESHPNGLQVMYNKLLEFVPHHCRLLREVTGGAISSEKGNTVPGYDFLVNSVWPQIVQGLEEKLPSLFNPGNPDAFHEKYTISMDFVRRLERQCGSQASVKRLRAHPAYHSFNKKWNLPVYFQIRFREIAGSLEAALTDVLEDAPAESPYCLLASHRTWSSLRRCWSDEMFLPLLVHRLWRLTLQILARYSVFVNELSLRPISNESPKEIKKPLVTGSKEPSITQGNTEDQGSGPSETKPVVSISRTQLVYVVADLDKLQEQLPELLEIIKPKLEMIGFKNFSSISAALEDSQSSFSACVPSLSSKIIQDLSDSCFGFLKSALEVPRLYRRTNKEVPTTASSYVDSALKPLFQLQSGHKDKLKQAIIQQWLEGTLSESTHKYYETVSDVLNSVKKMEESLKRLKQARKTTPANPVGPSGGMSDDDKIRLQLALDVEYLGEQIQKLGLQASDIKSFSALAELVAAAKDQATAEQP
B6: Coiled-coil domain-containing protein 33 (Homo sapiens), Q8N5R6-5 (parent)
chain: MGEPGPPSPPAPKAAPGLIDSFSEMNNYRRAMQKMAEDILSLRRQASILEGENRILRSRLAQQEEEEGQGKASEAQNTVSMKQKLLLSELDMKKLRDRVQHLQNELIRKNDREKELLLLYQAQQPQAALLKQYQGKLQKMKALEETVRHQEKVIEKMERVLEDRLQDRSKPPPLNRQQGKPYTGFPMLSASGLPLGSMGENLPVELYSVLLAENAKLRTELDKNRHQQAPIILQQQALPVDPGELGAGGDLTERLQETHGPGHSECTETLPAQDLLSGTSDKFNLLAKLEHAQSRILSLESQLEDSARRWGREKQDLATRLQEQEKGFRHPSNSIIIEQPVSDPPGVAPRGSGGGAGSHRTPKVTGP
partner: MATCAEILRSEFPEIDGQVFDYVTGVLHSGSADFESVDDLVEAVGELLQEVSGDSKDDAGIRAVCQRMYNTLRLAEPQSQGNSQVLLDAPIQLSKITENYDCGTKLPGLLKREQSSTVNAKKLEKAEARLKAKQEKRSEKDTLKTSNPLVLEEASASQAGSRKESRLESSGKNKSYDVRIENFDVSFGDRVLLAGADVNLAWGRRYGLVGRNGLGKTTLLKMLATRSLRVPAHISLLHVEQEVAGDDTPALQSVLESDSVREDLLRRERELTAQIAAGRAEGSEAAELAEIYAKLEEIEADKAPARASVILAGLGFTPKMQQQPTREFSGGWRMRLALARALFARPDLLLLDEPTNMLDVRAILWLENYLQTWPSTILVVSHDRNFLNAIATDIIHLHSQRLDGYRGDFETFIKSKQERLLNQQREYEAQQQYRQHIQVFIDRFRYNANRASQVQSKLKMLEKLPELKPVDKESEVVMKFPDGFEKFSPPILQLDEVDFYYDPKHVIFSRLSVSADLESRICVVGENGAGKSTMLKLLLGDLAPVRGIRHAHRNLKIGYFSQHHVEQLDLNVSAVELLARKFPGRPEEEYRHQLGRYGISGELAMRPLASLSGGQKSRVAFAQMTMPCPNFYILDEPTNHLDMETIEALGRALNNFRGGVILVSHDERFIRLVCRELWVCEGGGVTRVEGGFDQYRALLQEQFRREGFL

Variants of: B1
Details: with tnr12_human TNFRSF12A

| effect of a mutation on the interaction | Variant |
| --- | --- |
| with no effect | T181M |

Variants of: B1
Details: with ada33_human ADAM33, Q9BZ11
Sequence of ada33_human ADAM33, Q9BZ11 (Q9BZ11 whole entry): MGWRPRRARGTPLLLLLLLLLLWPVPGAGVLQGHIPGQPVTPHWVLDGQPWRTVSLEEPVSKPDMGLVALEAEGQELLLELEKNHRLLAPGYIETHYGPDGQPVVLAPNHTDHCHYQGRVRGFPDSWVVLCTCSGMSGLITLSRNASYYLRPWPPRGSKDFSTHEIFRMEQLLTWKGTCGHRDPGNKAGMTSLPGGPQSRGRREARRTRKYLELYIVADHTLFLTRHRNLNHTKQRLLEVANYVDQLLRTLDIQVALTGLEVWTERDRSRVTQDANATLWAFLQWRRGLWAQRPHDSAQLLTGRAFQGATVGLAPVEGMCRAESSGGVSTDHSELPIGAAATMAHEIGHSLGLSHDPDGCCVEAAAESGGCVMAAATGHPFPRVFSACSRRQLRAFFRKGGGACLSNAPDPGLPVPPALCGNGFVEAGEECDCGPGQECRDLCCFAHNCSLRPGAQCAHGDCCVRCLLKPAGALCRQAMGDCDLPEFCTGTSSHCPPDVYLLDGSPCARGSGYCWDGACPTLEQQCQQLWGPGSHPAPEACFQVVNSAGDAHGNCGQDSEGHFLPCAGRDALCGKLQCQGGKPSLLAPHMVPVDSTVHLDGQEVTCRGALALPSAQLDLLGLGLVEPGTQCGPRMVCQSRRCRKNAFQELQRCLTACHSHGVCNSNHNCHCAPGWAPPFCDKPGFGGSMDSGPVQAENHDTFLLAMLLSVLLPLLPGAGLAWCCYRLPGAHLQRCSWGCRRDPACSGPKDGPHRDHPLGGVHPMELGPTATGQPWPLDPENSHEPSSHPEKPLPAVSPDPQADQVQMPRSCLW

| effect of a mutation on the interaction | Variant |
| --- | --- |
| with no effect | T181M |

Variants of: B1
Details: with ccl4_human CCL4, P13236
Sequence of ccl4_human CCL4, P13236 (P13236 whole entry): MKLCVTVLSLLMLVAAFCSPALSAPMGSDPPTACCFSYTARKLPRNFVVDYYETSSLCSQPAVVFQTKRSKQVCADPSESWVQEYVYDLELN

| effect of a mutation on the interaction | Variant |
| --- | --- |
| with no effect | T181M |

Variants of: B2
Details: with tri41_human TRIM41, Q8WV44

| effect of a mutation on the interaction | Variant |
| --- | --- |
| with no effect | N63T |

Variants of: B3
Details: with kctd6_human KCTD6, Q8NC69

| effect of a mutation on the interaction | Variant |
| --- | --- |
| disrupting interaction strength | R483Q |
| disrupting interaction strength | I646T |
| with no effect | S703F |
| disrupting interaction strength | L715S |

Variants of: B4
Details: with homez_human HOMEZ

| effect of a mutation on the interaction | Variant |
| --- | --- |
| with no effect | M19V |

Variants of: B5
Details: with mtus2_human MTUS2, Q5JR59
Sequence of mtus2_human MTUS2, Q5JR59 (Q5JR59 whole entry): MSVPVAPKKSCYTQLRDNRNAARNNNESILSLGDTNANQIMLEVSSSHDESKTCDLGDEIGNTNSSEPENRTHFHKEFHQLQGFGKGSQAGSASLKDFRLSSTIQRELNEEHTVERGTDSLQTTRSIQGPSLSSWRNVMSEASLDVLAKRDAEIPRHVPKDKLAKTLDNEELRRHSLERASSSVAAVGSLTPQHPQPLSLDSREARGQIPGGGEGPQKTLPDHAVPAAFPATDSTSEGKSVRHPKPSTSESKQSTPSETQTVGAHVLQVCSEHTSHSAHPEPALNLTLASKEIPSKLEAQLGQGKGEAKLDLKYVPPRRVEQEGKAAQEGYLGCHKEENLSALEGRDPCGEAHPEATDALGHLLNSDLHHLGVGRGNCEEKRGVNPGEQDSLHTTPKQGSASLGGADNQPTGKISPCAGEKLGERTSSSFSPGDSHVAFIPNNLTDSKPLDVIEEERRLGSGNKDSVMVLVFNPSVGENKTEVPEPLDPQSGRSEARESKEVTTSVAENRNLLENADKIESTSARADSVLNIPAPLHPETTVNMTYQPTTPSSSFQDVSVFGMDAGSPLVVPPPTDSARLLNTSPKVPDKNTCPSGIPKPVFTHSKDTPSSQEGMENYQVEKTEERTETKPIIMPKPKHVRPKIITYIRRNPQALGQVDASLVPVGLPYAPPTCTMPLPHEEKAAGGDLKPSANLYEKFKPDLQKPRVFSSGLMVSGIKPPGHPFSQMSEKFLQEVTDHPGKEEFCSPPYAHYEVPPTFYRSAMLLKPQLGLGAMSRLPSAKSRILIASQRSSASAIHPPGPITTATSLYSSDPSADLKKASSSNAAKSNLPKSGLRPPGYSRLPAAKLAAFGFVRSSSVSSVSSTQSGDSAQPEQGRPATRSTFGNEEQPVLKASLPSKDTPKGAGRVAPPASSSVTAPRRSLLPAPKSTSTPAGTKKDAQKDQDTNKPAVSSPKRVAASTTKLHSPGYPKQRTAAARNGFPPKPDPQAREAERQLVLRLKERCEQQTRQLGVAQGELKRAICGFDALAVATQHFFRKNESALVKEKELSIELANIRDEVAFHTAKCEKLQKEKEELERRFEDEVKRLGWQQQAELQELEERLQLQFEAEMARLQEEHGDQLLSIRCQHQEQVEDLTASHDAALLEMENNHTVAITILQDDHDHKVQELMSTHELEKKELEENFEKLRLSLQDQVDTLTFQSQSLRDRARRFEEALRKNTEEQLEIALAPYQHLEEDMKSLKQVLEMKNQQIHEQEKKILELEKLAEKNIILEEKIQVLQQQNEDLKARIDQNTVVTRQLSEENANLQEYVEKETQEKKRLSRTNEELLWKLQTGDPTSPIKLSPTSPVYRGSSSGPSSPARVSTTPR

| effect of a mutation on the interaction | Variant |
| --- | --- |
| with no effect | V589I |

Variants of: B6
Details: with abcf3_human ABCF3, Q9NUQ8

| effect of a mutation on the interaction | Variant |
| --- | --- |
| with no effect | R30L |
| with no effect | G196R |

Source: IntAct's records for PubMed 31515488
